Test results from patent US20130230510A1.
Blank lines part the entries; values can stand above or below the molecule they belong to.

Assays:
[1] = molecular target: CD123 (human IL-3Rα) on cells (human) (UniProt P26951); assay: cell-based or functional assay
[2] = molecular target: CD123 (human IL-3Rα) (human) (UniProt P26951); assay: method not stated (indicative KD)
[3] = molecular target: CD123 (human IL-3Rα) (human) (UniProt P26951); assay: method not stated
[4] = molecular target: CD123 (human IL-3Rα) on cells (human) (UniProt P26951); assay: cell-based or functional assay; remark: listed apart in the source

Molecule: defucosylated hCSL360 produced by kifunensine treatment (hCSL360kif) (antibody)
- antibody concentration for almost complete ADCC lysis of Raji-CD123 high cells, E:T 50:1 [1]: 1 ng/mL

Molecule: humanised CSL360S239D/A330L/I332E (hCSL360Fc3) (from UniProt P01857 1-330) (antibody)
- antibody concentration for almost complete ADCC lysis of Raji-CD123 high cells, E:T 50:1 [1]: 1 ng/mL

Molecule: humanised variant of CSL360 (hCSL360) (antibody)
- fold decrease in affinity compared to the chimeric MAb (CSL360) [3]: 10 fold
- IC50, IL-3-dependent TF-1 cell proliferation [1]: 19 nM
- Kd [2]: 12.8 nM

Results, then the molecule that gave them:

- % CD107a positive NK cells, RMH003 AML target cells, CSL360 10 µg/mL (FIG. 8B) [1]: 39%
- % lysis, 51Cr release ADCC, CTLEN cells, E:T 10:1 [1]: 10%
- % lysis, 51Cr release ADCC, CTLEN cells, E:T 100:1 [1]: 51%
- % lysis, 51Cr release ADCC, SL (AML) cells, E:T 10:1 [1]: 2.4%
- % lysis, 51Cr release ADCC, SL (AML) cells, E:T 100:1 [1]: 15%
- % lysis, calcein release ADCC, RBH013 (AML), E:T 10:1 [1]: 0%
- % lysis, calcein release ADCC, RBH013 (AML), E:T 100:1 [1]: 0%
- % lysis, calcein release ADCC, RMH003 (AML), E:T 10:1 [1]: 39.2%
- % lysis, calcein release ADCC, RMH003 (AML), E:T 100:1 [1]: 82.6%
- % lysis, calcein release ADCC, RMH008 (AML), E:T 10:1 [1]: 59.5%
- % lysis, calcein release ADCC, RMH008 (AML), E:T 100:1 [1]: 100%
- % lysis, calcein release ADCC, RMH009 (B-ALL), E:T 10:1 [1]: 0%
- % lysis, calcein release ADCC, RMH009 (B-ALL), E:T 100:1 [1]: 0%
- % lysis, calcein release ADCC, RMH009* (B-ALL), repeat with other PBMC, E:T 10:1 [1]: 0%
- % lysis, calcein release ADCC, RMH009* (B-ALL), repeat with other PBMC, E:T 100:1 [1]: 0%
- % lysis, calcein release ADCC, RMH010 (AML), E:T 10:1 [1]: 4%
- % lysis, calcein release ADCC, RMH010 (AML), E:T 100:1 [1]: 0%
- % of NK cells expressing CD107a, E:T 1:1, target CTLEN-001 [1]: 6.7%
- % of NK cells expressing CD107a, E:T 1:1, target CTLEN-008 [1]: 24%
- % of NK cells expressing CD107a, E:T 1:1, target CTLEN-010 [1]: 5.7%
- % of NK cells expressing CD107a, E:T 1:1, target CTLEN-011-PBMC-1 [1]: 8.1%
- % of NK cells expressing CD107a, E:T 1:1, target CTLEN-011-PBMC-2 [1]: 10.5%
- % of NK cells expressing CD107a, E:T 1:1, target EL4hi-002 [1]: 2.9%
- % of NK cells expressing CD107a, E:T 1:1, target EL4hi-003 [1]: 15%
- % of NK cells expressing CD107a, E:T 1:1, target EL4hi-004 [1]: 16%
- % of NK cells expressing CD107a, E:T 1:1, target EL4hi-005 [1]: 21%
- % of NK cells expressing CD107a, E:T 1:1, target EL4hi-010 [1]: 34%
- % of NK cells expressing CD107a, E:T 1:1, target EL4hi-011-PBMC-1 [1]: 15.5%
- % of NK cells expressing CD107a, E:T 1:1, target EL4hi-011-PBMC-2 [1]: 23.5%
- % of NK cells expressing CD107a, E:T 1:1, target EL4hi/lo-001 [1]: 2.8%
- % of NK cells expressing CD107a, E:T 1:1, target RBH009^a (AML) [1]: 8.5%
- % of NK cells expressing CD107a, E:T 1:1, target RBH009^b (AML) [1]: 8%
- % of NK cells expressing CD107a, E:T 1:1, target RBH013^a (AML) [1]: 10%
- % of NK cells expressing CD107a, E:T 1:1, target RBH013^b (AML) [1]: 22%
- % of NK cells expressing CD107a, E:T 1:1, target RMH003^a (AML) [1]: 30%
- % of NK cells expressing CD107a, E:T 1:1, target RMH003^b (AML) [1]: 33%
- % of NK cells expressing CD107a, E:T 1:1, target RMH003^c (AML) [1]: 38%
- % of NK cells expressing CD107a, E:T 1:1, target RMH007 (B-ALL) [1]: 16.4%
- % of NK cells expressing CD107a, E:T 1:1, target RMH008^a (AML) [1]: 9%
- % of NK cells expressing CD107a, E:T 1:1, target RMH008^b (AML) [1]: 16%
- % of NK cells expressing CD107a, E:T 1:1, target RMH008^c (AML) [1]: 8.7%
- % of NK cells expressing CD107a, E:T 1:1, target RMH009^a (B-ALL) [1]: 3%
- % of NK cells expressing CD107a, E:T 1:1, target RMH009^b (B-ALL) [1]: 1.7%
- % of NK cells expressing CD107a, E:T 1:1, target RMH009^c (B-ALL) [1]: 7.4%
- % of NK cells expressing CD107a, E:T 1:1, target RMH010^a (AML) [1]: 14%
- % of NK cells expressing CD107a, E:T 1:1, target RMH010^b (AML) [1]: 25.5%
- % of NK cells expressing CD107a, E:T 1:1, target RMH011 (AML) [1]: 6.6%
- % of NK cells expressing CD107a, E:T 1:1, target TF-1 (GM-CSF) [1]: 0.7%
- % of NK cells expressing CD107a, E:T 1:1, target TF-1(IL-3) [1]: 1.45%
- IC50, IL-3-dependent TF-1 cell proliferation [1]: 5 nM
- Kd [2]: 1.06 nM
Molecule: chimeric antibody CSL360

- IL-3 (1 nM)-stimulated CD131 tyrosine phosphorylation, STAT-5 and Akt activation in TF-1 cells; 7G3 concentration that blocks completely [4]: 100 nM
B1: monoclonal antibody (MAb) 7G3 (antibody, from another filing, V domains shown)
VH: EVQLQQSGPELVKPGASVKMSCKASGYTFTDYYMKWVKQSHGKSLEWIGDIIPSNGATFYNQKFKGKATLTVDRSSSTAYMHLNSLTSEDSAVYYCTRSHLLRASWFAYWGQGTLVTVSA
VL: DFVMTQSPSSLTVTAGEKVTMSCKSSQSLLNSGNQKNYLTWYLQKPGQPPKLLIYWASTRESGVPDRFTGSGSGTDFTLTISSVQAEDLAVYYCQNDYSYPYTFGGGTKLEIKR
